Data from patent publication US6638905B2, “Cloning and recombinant production of CFR receptor(s)” (priority 1993, dated 2003).
No end group written: not given here.

How the values were obtained:
[1] = molecular target: T1, CRF-RA1 (hctCRFR) expressed in COSM6 cells (Homo sapiens, UniProt P34998); assay: CRF-R mediated stimulation of intracellular cAMP in COSM6 cells transfected with hctCRFR; format: cell-based; details: receptor transfected COSM6 cells
T1 construct: expressed in transfected cells; host or cells: COSM6 cells, DEAE-dextran transient transfection of clone hctCRFR in pcDNA1
T1 sequence (P34998 24-415): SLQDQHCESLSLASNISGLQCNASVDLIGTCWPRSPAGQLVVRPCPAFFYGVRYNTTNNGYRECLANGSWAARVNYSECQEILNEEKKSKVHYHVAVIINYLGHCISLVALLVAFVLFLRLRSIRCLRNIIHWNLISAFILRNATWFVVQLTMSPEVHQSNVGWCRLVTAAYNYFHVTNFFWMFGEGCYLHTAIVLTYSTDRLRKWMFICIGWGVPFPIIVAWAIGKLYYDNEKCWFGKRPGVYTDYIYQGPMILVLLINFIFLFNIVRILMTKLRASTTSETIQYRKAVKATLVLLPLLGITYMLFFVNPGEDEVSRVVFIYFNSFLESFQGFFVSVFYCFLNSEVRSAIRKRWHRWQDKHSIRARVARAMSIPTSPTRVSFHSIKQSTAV
Description: To determine the possible linkage of CRF-R to multiple signaling pathways, the ability of CRF-R to stimulate cAMP formation in CRF-R-expressing COSM6 cells was investigated. To ensure that changes in cAMP levels were not influenced by alterations in cAMP phosphodiesterase, the phosphodiesterase inhibitor 3-isobutyl-1-methylxanthine (IBMX) was added to the medium. COSM6 cells were trypsinized 24 hrs following transfection with either ctCRFR or rGnRHR in 150 mm dishes and were replated in 24-well plates (Costar) and allowed to express the receptors for another 24 hrs in 10% FCS, DMEM.
On the day of the stimulation, the medium was changed to 0.1 w FCS, DMEM at least 2 hrs before a 30 minute preincubation with 0.1 mM IBMX or medium. Test ligands (i.e., r/h CRF, sauvagine, salmon calcitonin, Vasoactive intestinal peptide (VIP), growth hormone releasing factor (GRF) were added in 0.1% BSA, 0.1% FCS, DMEM, and stimulation was carried out for 30 minutes at 37° C., 7.5% CO2. The medium was removed and the cells were extracted overnight with 1 ml ice-cold 95% EtOH-0.1M HCl at −20° C. Cyclic AMP (cAMP) levels were determined in duplicate from triplicate wells by RIA kit (Biomedical Technologies, Stoughton, Mass.) following the manufacturer's protocol.

CRF-RB1 = molecular target: T2, CRF-RB1 (Mus musculus, UniProt Q60748); assay: Competitive displacement of 125I-(Nle21,Tyr32)-ovine CRF from membranes of COSM6 cells transfected with pCRF-RB1; format: binding; details: for displacement of bound radioligand (in words): specificity of binding
T2 construct: The full-length CRF-RB1 receptor cDNA was subcloned into the expression vector pcDNA1; expressed in transfected cells; host or cells: COSM6 cells, DEAE-dextran transient transfection of pCRF-RB1
T2 sequence (Q60748 1-431 isoform Q60748-2): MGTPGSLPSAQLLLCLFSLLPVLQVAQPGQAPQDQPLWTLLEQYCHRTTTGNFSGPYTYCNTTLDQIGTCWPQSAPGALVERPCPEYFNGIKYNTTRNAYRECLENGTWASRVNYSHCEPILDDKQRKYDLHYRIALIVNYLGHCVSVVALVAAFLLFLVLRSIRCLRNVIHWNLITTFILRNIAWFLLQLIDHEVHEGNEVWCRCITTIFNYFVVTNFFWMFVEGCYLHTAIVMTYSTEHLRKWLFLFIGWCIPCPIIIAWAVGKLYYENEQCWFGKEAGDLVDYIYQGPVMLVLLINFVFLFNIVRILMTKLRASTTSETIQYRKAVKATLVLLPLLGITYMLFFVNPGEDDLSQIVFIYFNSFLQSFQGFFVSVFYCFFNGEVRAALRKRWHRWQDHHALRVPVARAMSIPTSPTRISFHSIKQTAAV
Description: Approximately 10^6 COSM6 cells were transfected with either hctCRFR or rGnRHR (rat gonadotropin releasing hormone receptor) by the DEAE-dextran method and grown in 150 mm tissue culture dishes. Two days after transfection, the cells were washed twice with 1 ml HDB and were detached by incubation for 15 min at room temperature in 0.5 mM EDTA in HDB. After pelleting, the cells were washed twice with HDB, and then homogenized in 5% sucrose (16 ml/150 mm dish). The homogenate was centrifuged at 600×g for 5 minutes, and the resulting supernatant was centrifuged at 40,000×g for 20 minutes. The resulting pellet (containing crude membranes) was resuspended at 1-4 mg/ml in 10% sucrose, and used in a competitive radioreceptor assay to measure binding to the CRF-R as described in Perrin et al., Endoc., 118:1171 (1986).
The reaction was terminated by filtration through GF/C (Whatman) filters, prewetted with 1%BSA, 10 mM HEPES, pH 7.5. The filters were washed 4 times with 1 ml 0.1% BSA, 50 mM Tris, pH 7.5.
Using the methods described in Example 3, a radioreceptor assay was conducted. Approximately […] of pCRF-RB1 plasmid DNA was transfected into COSM6 cells using the DEAE dextran method. […] In order to calculate a Kd the displacement data were analyzed using the Ligand program of Munson and Rodbard (1980), Anal. Biochem., 107:220-239.

[2] = molecular target: T3, CRF-RB1 expressed in COSM6 cells (Mus musculus, UniProt Q60748); assay: CRF-RB1 mediated stimulation of intracellular cAMP in COSM6 cells transfected with pCRF-RB1; format: cell-based; details: for stimulation of intracellular cAMP accumulation (in words): FIG. 5
T3 construct: The full-length CRF-RB1 receptor cDNA was subcloned into the expression vector pcDNA1; expressed in transfected cells; host or cells: COSM6 cells, DEAE-dextran transient transfection of pCRF-RB1
T3 sequence (Q60748 1-431 isoform Q60748-2): as above
Description: Using methods described in Example 4, the ability of CRF-RB1 to stimulate cAMP formation in CRF-RB1-expressing COSM6 cells was investigated. The plasmid pCRF-RB1 was transfected into COSM6 cells. One day later, the cells were trypsinized and replated in 10% FBS, DMEM into 24 or 48 well COSTAR tissue culture wells, and allowed to grow another 24 hours. The medium was changed to 0.1% FBS, DMEM at least two hours before treatments. The cells were preincubated for 30 minutes with 0.1 mM 3-isobutyl-1-methylxanthine and then exposed to various peptides for 30 minutes at 37° C. Intracellular cAMP was measured in duplicate from triplicate wells using an RIA kit (Biomedical Technologies, Stoughton, Mass.).

[3] = molecular target: T4, hCRF-RA1 (CRF receptor encoded by clone hctCRFR) (Homo sapiens, UniProt P34998); assay: Competitive radioreceptor assay: displacement of 125I-(Nle21,Tyr32)-ovine CRF from membranes of COSM6 cells transfected with hctCRFR; format: binding; details: receptor of SEQ ID NO:2
T4 construct: expressed in transfected cells; host or cells: COSM6 cells, DEAE-dextran transient transfection of clone hctCRFR in pcDNA1
T4 sequence (P34998 24-415): T1 sequence (P34998 24-415)
Description: Approximately 10^6 COSM6 cells were transfected with either […] or […] (rat gonadotropin releasing hormone receptor) by the DEAE-dextran method and grown in 150 mm tissue culture dishes. Two days after transfection, the cells were washed twice with 1 ml HDB and were detached by incubation for 15 min at room temperature in 0.5 mM EDTA in HDB. After pelleting, the cells were washed twice with HDB, and then homogenized in 5% sucrose (16 ml/150 mm dish). […] The reaction was terminated by filtration through GF/C (Whatman) filters, prewetted with 1%BSA, 10 mM HEPES, pH 7.5. The filters were washed 4 times with 1 ml 0.1% BSA, 50 mM Tris, pH 7.5. Filter-bound radioactivity, indicating the presence of CRF-R:^125 I-([…],Tyr^32)-ovine CRF complex, was determined by g-scintillation counting.

Row | Molecule | effect on cyclic AMP levels / activity of non-related peptides (in words) [1] | stimulation of intracellular cAMP accumulation (in words) [2] | affinity of the CRF-Rs for the ligand (in words) (CRF-RB1) | affinity of the receptor for the ligand (in words) [3] | further results
1 | salmon calcitonin: non-related peptide | inactive | – | – | – | –
2 | GRF: growth hormone releasing factor, non-related peptide (YADAIFTNSYRKVLGQLSARKLLQDIMSRQQGESNQERGA) | inactive | do not stimulate | – | – | displacement of bound radioligand (in words) (CRF-RB1): do not displace
3 | CC[C@H](C)[C@H](NC(=O)[C@@H](NC(=O)[C@H](CC(=O)O)NC(=O)[C@H](CC(C)C)NC(=O)[C@H](CC(C)C)NC(=O)[C@H](CC(C)C)NC(=O)[C@H](CCCNC(=N)N)NC(=O)[C@H](CC(N)=O)NC(=O)[C@H](CC(N)=O)NC(=O)[C@H](C)NC(=O)[C@H](C)NC(=O)[C@H](CCC(N)=O)NC(=O)[C@H](CCC(N)=O)NC(=O)[C@H](CCCCN)NC(=O)[C@H](CCC(=O)O)NC(=O)[C@H](CCCCN)NC(=O)[C@H](CCC(=O)O)NC(=O)[C@H](CCC(N)=O)NC(=O)[C@H](CCCCN)NC(=O)[C@H](CCC(=O)O)NC(=O)[C@@H](NC(=O)[C@H](CCC(=O)O)NC(=O)[C@@H](NC(=O)[C@H](CCSC)NC(=O)[C@H](CCCCN)NC(=O)[C@H](CCCNC(=N)N)NC(=O)[C@H](CC(C)C)NC(=O)[C@H](CC(C)C)NC(=O)[C@H](CCC(=O)O)NC(=O)[C@H](CC(C)C)NC(=O)[C@H](CO)NC(=O)[C@H](CC(C)C)NC(=O)[C@H](CC(=O)O)NC(=O)[C@@H](NC(=O)[C@H](CO)NC(=O)[C@@H](NC(=O)[C@@H]1CCCN1C(=O)[C@@H]1CCCN1C(=O)CNC(=O)[C@@H]1CCC(=O)N1)[C@@H](C)CC)[C@@H](C)CC)[C@@H](C)CC)[C@@H](C)CC)[C@@H](C)O)C(N)=O [sauvagine] | – | equipotent to CRF | high affinity | – | –
4 | (DPhe^12,Nle^21,38)hCRF(12-41) | – | – | high affinity | high affinity | inhibition of the CRF signal by antagonist (in words) ([2]; 1 mM antagonist): inhibited
5 | NDDPPISIDLTFHLLRNMIEMARIENEREQAGLNRKYLDEV-NH2 (C-terminus assumed) [urotensin] | – | equipotent to CRF | high affinity | high affinity | Ki (CRF-RB1; on CRF-RB): 0.7 ± 0.3 nM
6 | ovine CRF | – | – | – | high affinity | –
7 | gonadotropin releasing hormone: non-related peptide | inactive | – | – | – | –
8 | SQEPPISLDLTFHALREVLEMTKADQLAQQAHSNRKLLDIA-NH2 (C-terminus assumed) [[Ala^14]-ovine CRF] | – | – | – | very low affinity | –
9 | VIP: vasoactive intestinal peptide, non-related peptide | inactive | do not stimulate | – | – | displacement of bound radioligand (in words) (CRF-RB1): do not displace
